Laboratory results: paper PMC7884425

Experiments:
[1] = molecular target: full-length human PARP1 (activated by DNA) (human), P09874; assay: ITC; in the presence of DNA; details: natural protein; chains chain; remark: other sources report otherwise
[2] = molecular target: full-length human PARP1 (activated by DNA) (human), P09874; assay: ITC; HPF1 in the syringe; full-length PARP1 0.02 mM pre-incubated with 0.06 mM DNA hairpin at 4 °C for at least 60 min, in the cell; 25 °C; 20 mM Tris-pH 8.0, 150 mM NaCl, 1 mM TCEP, 1 mM MgCl2; details: remark: other sources report otherwise

full-length human PARP1 (activated by DNA) (human), P09874, sequence (P09874 whole entry): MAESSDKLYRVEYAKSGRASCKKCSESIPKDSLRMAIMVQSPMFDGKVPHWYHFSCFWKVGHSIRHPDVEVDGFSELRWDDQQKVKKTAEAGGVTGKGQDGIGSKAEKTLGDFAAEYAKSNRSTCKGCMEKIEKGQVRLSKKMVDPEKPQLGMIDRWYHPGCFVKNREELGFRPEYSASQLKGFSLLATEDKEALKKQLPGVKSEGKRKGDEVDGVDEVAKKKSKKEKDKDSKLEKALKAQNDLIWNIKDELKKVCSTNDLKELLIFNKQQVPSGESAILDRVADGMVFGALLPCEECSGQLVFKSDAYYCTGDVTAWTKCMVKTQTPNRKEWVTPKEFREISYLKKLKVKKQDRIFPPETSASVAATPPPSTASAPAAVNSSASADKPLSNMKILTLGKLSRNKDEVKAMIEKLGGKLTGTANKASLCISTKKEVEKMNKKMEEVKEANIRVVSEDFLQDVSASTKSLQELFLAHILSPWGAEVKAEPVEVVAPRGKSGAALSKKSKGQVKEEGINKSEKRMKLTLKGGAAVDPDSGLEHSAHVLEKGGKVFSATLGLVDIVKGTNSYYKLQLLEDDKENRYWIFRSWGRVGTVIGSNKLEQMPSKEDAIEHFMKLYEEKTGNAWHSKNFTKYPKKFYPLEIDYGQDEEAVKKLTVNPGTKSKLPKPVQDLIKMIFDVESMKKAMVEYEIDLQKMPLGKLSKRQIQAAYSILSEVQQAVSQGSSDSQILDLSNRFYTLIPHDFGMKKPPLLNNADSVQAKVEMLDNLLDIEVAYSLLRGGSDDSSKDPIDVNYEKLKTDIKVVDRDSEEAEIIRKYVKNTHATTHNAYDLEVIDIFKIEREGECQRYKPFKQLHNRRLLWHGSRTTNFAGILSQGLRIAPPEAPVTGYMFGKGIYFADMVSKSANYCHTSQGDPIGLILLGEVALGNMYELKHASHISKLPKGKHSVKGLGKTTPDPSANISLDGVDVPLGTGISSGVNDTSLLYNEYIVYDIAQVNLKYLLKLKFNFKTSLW

Ka [1]: 330000 M⁻¹ | Kd [2]: 2.8 µM
B1: human HPF1 (histone PARylation factor 1), wild-type, Q9NWY4 1-346 (natural protein)
chain: MVGGGGKRRPGGEGPQCEKTTDVKKSKFCEADVSSDLRKEVENHYKLSLPEDFYHFWKFCEELDPEKPSDSLSASLGLQLVGPYDILAGKHKTKKKSTGLNFNLHWRFYYDPPEFQTIIIGDNKTQYHMGYFRDSPDEFPVYVGINEAKKNCIIVPNGDNVFAAVKLFLTKKLREITDKKKINLLKNIDEKLTEAARELGYSLEQRTVKMKQRDKKVVTKTFHGAGLVVPVDKNDVGYRELPETDADLKRICKTIVEAASDEERLKAFAPIQEMMTFVQFANDECDYGMGLELGMDLFCYGSHYFHKVAGQLLPLAYNLLKRNLFAEIIEEHLANRSQENIDQLAA
